# Source: patent publication US20030143656A1 (published 2003)
# Where a chain is given by its changes, count along the chain named. In names and notes the source's numbering stands.
# T1: GST-PDK1 (wild type) (human, UniProt O15530 1-556)
# T1 sequence (looked up): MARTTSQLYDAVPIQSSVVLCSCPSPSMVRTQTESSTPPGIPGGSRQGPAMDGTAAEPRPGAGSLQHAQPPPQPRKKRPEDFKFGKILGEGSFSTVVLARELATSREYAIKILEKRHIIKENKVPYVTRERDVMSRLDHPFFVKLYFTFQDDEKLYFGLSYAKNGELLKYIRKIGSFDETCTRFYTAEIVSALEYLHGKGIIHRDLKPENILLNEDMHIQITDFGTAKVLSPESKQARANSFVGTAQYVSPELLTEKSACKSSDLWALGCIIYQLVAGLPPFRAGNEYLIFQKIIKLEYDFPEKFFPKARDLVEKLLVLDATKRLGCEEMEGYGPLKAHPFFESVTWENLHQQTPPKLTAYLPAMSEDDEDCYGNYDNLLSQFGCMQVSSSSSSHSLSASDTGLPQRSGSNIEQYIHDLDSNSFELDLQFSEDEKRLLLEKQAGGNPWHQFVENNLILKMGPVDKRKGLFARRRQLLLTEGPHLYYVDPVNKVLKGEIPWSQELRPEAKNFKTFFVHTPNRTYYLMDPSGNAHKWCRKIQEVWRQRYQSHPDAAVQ
# B1: PIFtide (peptide)
# peptide: REPRILSEEEQEMFRDFDYIADWC
# B2: GST-PDK1 K115A (enzyme, not shown: a dimerising Fc or GST; small tags and cut ends)
# chain: T1 sequence (looked up) with K115A
# B3: GST-PDK1 L155A (enzyme, human, UniProt O15530 1-556, looked up)
# chain: T1 sequence (looked up) with L155A
# notes: range 1-556; not shown: N-terminal GST tag, pEBG2T vector
# B4: GST-PDK1 Q150A (enzyme, human, UniProt O15530 1-556, looked up)
# chain: T1 sequence (looked up) with Q150A
# notes: as for B3
# What was measured:
# GST-PDK1 L155A = target: B3; experiment: cell-based or functional assay
# GST-PDK1 Q150A = target: B4; experiment: cell-based or functional assay
# GST-PDK1 K115A = target: B2; experiment: cell-based or functional assay
# GST-PDK1 (wild type) = target: T1, GST-PDK1 (wild type); experiment: cell-based or functional assay
# PIFtide [1] = target: B1; experiment: method not stated (reference mark lost)
# PIFtide [2] = target: B1; experiment: method not stated (unpublished data)
binder,measurement,setting,value
B1,inhibition by 2 µM PIFtide of the activation of S6K1-T2[T412E] and SGK1[T422D] by the PDK1 mutant,GST-PDK1 L155A,~50%
same,inhibition by 35 µM PIFtide of the activation of S6K1-T2[T412E] and SGK1[T422D] by the PDK1 mutant,GST-PDK1 L155A,> 95%
same,inhibition by 2 µM PIFtide of the activation of S6K1-T2[T412E] and SGK1[T422D] by the PDK1 mutant,GST-PDK1 Q150A,~50%
same,inhibition by 35 µM PIFtide of the activation of S6K1-T2[T412E] and SGK1[T422D] by the PDK1 mutant,GST-PDK1 Q150A,> 95%
same,stimulation of the PDK1 mutant towards T308tide by PIF,GST-PDK1 Q150A,~2 fold
same,inhibition by 2 µM PIFtide of the activation of S6K1-T2[T412E] and SGK1[T422D] by the PDK1 mutant,GST-PDK1 K115A,~50%
same,inhibition by 35 µM PIFtide of the activation of S6K1-T2[T412E] and SGK1[T422D] by the PDK1 mutant,GST-PDK1 K115A,> 95%
same,increase of PDK1 activity towards T308tide,GST-PDK1 (wild type),≤ 4 fold
same,increase of TM50 (heat inactivation of GST-PDK1),GST-PDK1 (wild type),8 to 10 °C
same,inhibition by 2 µM PIFtide of the activation of S6K1[T412E] by wild type PDK1,GST-PDK1 (wild type),> 20 fold
REPRILSEEEQEMFRDFAYLADWC [D978A-PIFtide],"fold decrease in activation of PDK1 towards T308tide, against wild type PIFtide",GST-PDK1 (wild type),8 fold
B2,fold decrease in affinity for PIFtide,PIFtide [1],~10 fold
B3,fold decrease in affinity for PIFtide,PIFtide [2],~10 fold
B4,fold decrease in affinity for PIFtide,PIFtide [1],~10 fold
